Legend:
Assay in all cases: cell-based or functional assay
EphB2 (h) (human) = EphB2 (h) (human) (UniProt P29323)
KDR (h) (human) = KDR (h) (human) (UniProt P35968)
Itk (h) (human) = biological target: T1, Itk (h) (human) (UniProt Q08881)
T1 sequence (looked up): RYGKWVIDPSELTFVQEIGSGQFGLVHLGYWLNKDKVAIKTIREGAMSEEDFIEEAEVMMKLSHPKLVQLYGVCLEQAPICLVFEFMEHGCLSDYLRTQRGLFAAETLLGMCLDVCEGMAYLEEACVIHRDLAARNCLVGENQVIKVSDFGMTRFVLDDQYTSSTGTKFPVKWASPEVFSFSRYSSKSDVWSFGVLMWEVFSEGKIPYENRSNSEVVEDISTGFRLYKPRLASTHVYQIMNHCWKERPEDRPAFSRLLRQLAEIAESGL

NEK6 (h) (human) = NEK6 (h) (human) (UniProt Q9HC98)
LIMK1 (h) (human) = LIMK1 (h) (human) (UniProt P53667)
Ret (h) (human) = biological target: T2, Ret (h) (human) (UniProt P07949)
T2 sequence (looked up): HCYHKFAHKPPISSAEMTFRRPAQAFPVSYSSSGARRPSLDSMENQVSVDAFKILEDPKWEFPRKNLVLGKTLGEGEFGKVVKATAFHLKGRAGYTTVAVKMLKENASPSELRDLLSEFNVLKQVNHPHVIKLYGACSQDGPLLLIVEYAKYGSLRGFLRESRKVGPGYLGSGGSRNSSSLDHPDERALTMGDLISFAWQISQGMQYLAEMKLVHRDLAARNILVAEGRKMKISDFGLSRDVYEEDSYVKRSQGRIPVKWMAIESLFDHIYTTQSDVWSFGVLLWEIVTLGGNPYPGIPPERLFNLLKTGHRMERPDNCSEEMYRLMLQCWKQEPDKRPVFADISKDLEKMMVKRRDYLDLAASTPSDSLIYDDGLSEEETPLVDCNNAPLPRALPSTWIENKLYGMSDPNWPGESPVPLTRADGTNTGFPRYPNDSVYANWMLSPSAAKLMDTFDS

ARK5 (h) (human) = biological target: T3, ARK5 (h) (human) (UniProt O60285)
T3 sequence (looked up): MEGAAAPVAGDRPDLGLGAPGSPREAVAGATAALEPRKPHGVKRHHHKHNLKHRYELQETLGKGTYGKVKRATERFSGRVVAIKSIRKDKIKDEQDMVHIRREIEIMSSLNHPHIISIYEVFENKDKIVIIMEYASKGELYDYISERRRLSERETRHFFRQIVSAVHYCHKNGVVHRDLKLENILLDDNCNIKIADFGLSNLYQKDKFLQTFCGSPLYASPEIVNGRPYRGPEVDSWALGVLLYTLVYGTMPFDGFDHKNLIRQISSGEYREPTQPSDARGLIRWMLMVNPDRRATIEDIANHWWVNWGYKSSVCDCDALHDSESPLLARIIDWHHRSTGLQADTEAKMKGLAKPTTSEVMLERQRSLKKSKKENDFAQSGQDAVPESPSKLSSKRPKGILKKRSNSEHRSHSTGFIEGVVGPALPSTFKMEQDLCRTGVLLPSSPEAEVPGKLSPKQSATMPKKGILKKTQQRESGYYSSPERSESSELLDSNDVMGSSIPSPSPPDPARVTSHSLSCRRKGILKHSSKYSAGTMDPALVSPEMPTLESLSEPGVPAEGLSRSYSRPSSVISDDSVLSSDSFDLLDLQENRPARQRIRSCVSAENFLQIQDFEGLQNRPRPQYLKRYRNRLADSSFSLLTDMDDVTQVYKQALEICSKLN

Plk3 (h) (human) = Plk3 (h) (human) (UniProt Q9H4B4)
Ron (h) (human) = Ron (h) (human) (UniProt Q04912)
BrSK2 (h) (human) = biological target: T4, BrSK2 (h) (human) (UniProt Q8IWQ3)
T4 sequence (looked up): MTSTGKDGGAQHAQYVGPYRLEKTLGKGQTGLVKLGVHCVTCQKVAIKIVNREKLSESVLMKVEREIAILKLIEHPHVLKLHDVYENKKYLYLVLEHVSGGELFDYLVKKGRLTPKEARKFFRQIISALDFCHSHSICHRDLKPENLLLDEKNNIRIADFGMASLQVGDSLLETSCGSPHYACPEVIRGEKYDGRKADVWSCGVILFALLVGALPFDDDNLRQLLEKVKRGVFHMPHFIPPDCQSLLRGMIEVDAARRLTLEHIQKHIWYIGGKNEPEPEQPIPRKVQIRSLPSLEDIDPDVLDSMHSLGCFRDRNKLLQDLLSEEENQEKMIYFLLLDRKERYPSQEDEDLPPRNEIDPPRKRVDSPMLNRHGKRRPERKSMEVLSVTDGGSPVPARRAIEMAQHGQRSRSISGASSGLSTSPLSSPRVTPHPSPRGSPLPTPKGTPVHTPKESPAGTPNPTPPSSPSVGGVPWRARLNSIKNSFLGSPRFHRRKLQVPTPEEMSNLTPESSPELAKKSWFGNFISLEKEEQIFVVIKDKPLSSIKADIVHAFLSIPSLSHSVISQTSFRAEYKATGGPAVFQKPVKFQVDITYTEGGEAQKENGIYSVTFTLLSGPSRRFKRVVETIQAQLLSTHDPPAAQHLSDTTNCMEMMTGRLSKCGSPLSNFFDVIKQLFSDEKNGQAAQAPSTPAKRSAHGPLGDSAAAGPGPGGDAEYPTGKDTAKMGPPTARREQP

PDK1 (h) (human) = biological target: T5, PDK1 (h) (human) (UniProt O15530)
T5 sequence (looked up): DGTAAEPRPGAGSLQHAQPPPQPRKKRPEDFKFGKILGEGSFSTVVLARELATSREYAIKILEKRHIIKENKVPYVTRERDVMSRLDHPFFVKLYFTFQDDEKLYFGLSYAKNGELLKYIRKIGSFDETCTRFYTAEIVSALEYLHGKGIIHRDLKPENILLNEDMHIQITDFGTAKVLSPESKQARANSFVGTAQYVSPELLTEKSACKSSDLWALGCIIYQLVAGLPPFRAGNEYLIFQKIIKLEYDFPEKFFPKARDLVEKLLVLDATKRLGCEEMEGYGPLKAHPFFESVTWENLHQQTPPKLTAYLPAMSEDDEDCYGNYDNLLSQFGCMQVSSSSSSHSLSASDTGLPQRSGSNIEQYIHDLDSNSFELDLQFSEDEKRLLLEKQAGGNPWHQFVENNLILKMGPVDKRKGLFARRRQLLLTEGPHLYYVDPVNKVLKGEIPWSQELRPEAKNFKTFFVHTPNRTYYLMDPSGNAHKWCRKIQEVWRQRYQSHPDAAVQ

EphB2 (h) (human), sequence (P29323 565-986 limits assumed): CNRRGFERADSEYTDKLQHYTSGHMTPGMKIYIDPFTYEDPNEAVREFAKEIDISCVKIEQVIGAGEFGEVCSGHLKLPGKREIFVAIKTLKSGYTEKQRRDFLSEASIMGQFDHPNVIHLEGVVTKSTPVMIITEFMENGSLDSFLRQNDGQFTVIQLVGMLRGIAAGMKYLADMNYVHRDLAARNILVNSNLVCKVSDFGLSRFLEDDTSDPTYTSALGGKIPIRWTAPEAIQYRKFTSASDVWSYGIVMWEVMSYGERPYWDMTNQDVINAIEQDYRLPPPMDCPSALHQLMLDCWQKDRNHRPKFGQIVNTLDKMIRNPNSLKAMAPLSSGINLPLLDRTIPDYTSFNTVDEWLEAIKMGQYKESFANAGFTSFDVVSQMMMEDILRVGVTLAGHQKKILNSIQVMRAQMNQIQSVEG
Ron (h) (human), sequence (Q04912 983-1400 limits assumed): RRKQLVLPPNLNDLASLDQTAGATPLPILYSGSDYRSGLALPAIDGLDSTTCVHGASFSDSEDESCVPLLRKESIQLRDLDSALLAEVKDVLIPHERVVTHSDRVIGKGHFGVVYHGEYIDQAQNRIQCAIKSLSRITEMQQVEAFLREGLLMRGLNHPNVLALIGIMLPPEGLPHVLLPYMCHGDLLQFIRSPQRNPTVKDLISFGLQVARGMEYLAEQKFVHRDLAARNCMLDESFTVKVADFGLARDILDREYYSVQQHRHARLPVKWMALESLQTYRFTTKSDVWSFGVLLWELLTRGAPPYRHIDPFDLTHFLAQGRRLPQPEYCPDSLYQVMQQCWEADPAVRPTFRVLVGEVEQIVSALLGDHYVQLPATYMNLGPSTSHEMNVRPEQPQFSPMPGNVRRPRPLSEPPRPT

% activity at 100 µM (EphB2 (h) (human)): 18%
% activity at 100 µM (KDR (h) (human)): 101%
% activity at 100 µM (Itk (h) (human)): 77%
% activity at 100 µM (NEK6 (h) (human)): 82%
% activity at 100 µM (LIMK1 (h) (human)): 88%
% activity at 100 µM (Ret (h) (human)): 140%
% activity at 100 µM (ARK5 (h) (human)): 78%
% activity at 100 µM (Plk3 (h) (human)): 127%
% activity at 100 µM (Ron (h) (human)): 93%
% activity at 100 µM (BrSK2 (h) (human)): 83%
% activity at 100 µM (PDK1 (h) (human)): 135%
Substance: MMI-0300 (peptide)

Reference: patent US20160136234A1
